# Target: SARS-CoV nucleocapsid protein C-terminal domain (residues 248–365) (SARS-CoV TW1 strain)
# Experiment: NMR structure
substance,measurement,value
SARS-CoV nucleocapsid protein C-terminal domain (residues 248–365) (domain or fragment),stoichiometry N,2
